In patent US20080300206:

Tested on: recombinant wild-type human alpha-synuclein

Substance | S87 phosphorylation, immunoblot (ELADW-110) | S129 phosphorylation in vitro, normalised by activity units | S129 phosphorylation, immunoblot (11A5), kinase:AS 1:200 molar | S129 phosphorylation, immunoblot (11A5), rank of signal | phospho ser-129 level in vitro, normalised for molarity
casein kinase I (CKI) | A signal was detected only with CKI phosphorylation | CKI gave a modest signal | Prominent signals came from GRK6, CKI, CKII and PLK2 | CKI>GRK6>PLK2>GRK4>GRK5>GRK2 | roughly equivalent levels of phospho ser-129 between CKI, GRK6 and PLK2
casein kinase II (CKII) |  | CKII was not detectable | Prominent signals came from GRK6, CKI, CKII and PLK2 |  | 
